One test deals with T1, GDF1 (R&D, 6937-GD-010) (UniProt P27539 254-372).
T1 sequence (looked up): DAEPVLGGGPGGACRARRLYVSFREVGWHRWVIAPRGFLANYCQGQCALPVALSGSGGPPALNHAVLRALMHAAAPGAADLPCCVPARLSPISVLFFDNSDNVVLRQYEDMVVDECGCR
The test can be described thus: ELISA, GDF1 coated at 1 µg/ml, HRP-anti-human IgG. The protocol:
(§1) GDF15 (ACROBiosystems, GDS-HS149), GDF1 (R&D, 6937-GD-010), and GDF3 (R&D, 5754-G3-010) proteins were dissolved in PBS at a concentration of 1 μg/ml and were used to coat ELISA 96-well plate. On the next day, the 96-well plate was blocked with 2% BSA in PBS for 1 hour. After removing the blocking solution, GDF15 antibody 53E5 (hz), control antibody Ponsegromab and irrelevant hIgG1 were added at 4 μg/ml. After incubation at room temperature for 1 hour, the plate was washed, and then HRP-anti-human IgG was added. After incubation at room temperature for 1 hour, the HRP enzyme activity signal (OD450) was detected. The OD450 value is the relative signal of the antibody binding amount.

The target in a further test is T2, GDF15-mFC protein (human; mouse, UniProt Q99988 197-308).
T2 construct: extracellular domain;domain: IgG2a-FC; also called GDF15-mFc fusion protein
T2 sequence (looked up): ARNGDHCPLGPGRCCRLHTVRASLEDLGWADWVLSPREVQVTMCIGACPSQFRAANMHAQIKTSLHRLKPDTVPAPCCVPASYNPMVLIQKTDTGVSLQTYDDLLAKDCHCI
The test can be described thus: competitive ELISA, GFRAL-HIS coated (competitor), GDF15-mFc 0.3 µg/ml pre-incubated with antibody. The procedure:
GFRAL-HIS protein (ACROBiosystems, GFA-H52H3) was dissolved in PBS at a concentration of […] and was used to coat ELISA 96-well plate one day before blocking the plate with 2% BSA in PBS. 53E5 (hz), and control antibodies Ponsegromab and AV380-hIgG1 were 3.16-fold diluted for 10 gradients with a starting concentration of 20 μg/ml. At the same time, GDF15-mFc protein was added at a final concentration of 0.3 μg/ml. After incubation at room temperature for 1 hour, the mixtures were added to 96-well plate coated with GFRAL-HIS. After incubated at room temperature for 1 hour, the plate was washed and then HRP-anti-mouse IgG was added to the plate. After incubation at room temperature for 1 hour, the HRP enzyme activity (OD450) was detected. The HRP enzyme activity represents the relative amount of GDF15-mFc protein bound to GFRAL. The OD450 values and antibody concentrations were plotted. The dose-effect curve was fitted using the log (agonist) vs. response-variable slope (four-parameter) Logistic model to calculate IC50.
Background: An ELISA detects its analyte on a solid surface through an enzyme-linked reagent.

For test [1], the target named is T3, GDF15-HIS (ACROBiosystems, CAT #: GD5-H5149) (human, UniProt Q99988 197-308).
T3 construct: Bought protein; also called GDF15 (ACROBiosystems, GD5-H5149); human GDF15; not shown: His tag
T3 sequence (looked up): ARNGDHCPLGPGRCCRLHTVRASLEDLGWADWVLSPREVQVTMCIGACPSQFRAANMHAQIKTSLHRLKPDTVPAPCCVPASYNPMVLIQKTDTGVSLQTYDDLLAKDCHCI
The test can be described thus: ELISA in stability test, antibody after 40 °C for 2 weeks; coated antigen not named. The protocol: (§2) An appropriate amount of each antibody was taken and adjusted to 10 mg/mL, and was placed at 40° C. for 1 and 2 weeks. Protein aggregation was detected using SEC-HPLC, and protein binding activity change was detected by ELISA.

In test [2] the target is T3, GDF15-HIS (ACROBiosystems, CAT #: …). The test is described as follows: BLI (ForteBio Octet), antibody immobilised, GDF15 200-6.25 nM. On the technique in general: Biolayer interferometry detects binding as a change in optical thickness at a sensor tip.
For test [3] the target is unchanged. The test is described as follows: ELISA on human GDF15, antibody after 2 weeks at 37 °C in plasma. The procedure: […] of the antibodies to be tested (final concentration 1 mg/ml) were added to 200 μl of plasma and PBS, respectively, tightly sealed and placed at 37° C. for 2 weeks. The change of protein binding activity was detected by ELISA.
Another test concerns the target T4, GDF3 (R&D, 5754-G3-010) (UniProt Q9NR23 251-364).
T4 sequence (looked up): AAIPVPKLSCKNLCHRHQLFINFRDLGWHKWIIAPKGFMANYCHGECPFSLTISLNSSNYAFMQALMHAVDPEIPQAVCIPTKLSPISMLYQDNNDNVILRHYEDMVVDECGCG
The test is described as follows: ELISA, GDF3 coated at 1 µg/ml, HRP-anti-human IgG. The protocol: as §1

Test [4] deals with T3, GDF15-HIS (ACROBiosystems, CAT #: …). The test is described as follows: ELISA in stability test, antibody after 40 °C for 1 week; coated antigen not named. The procedure:
as §2

B1: 53E5(hz) (antibody, human IgG1, kappa, V domains shown)
VH: QVQLQESGPGLVKPSETLSLTCTFSGFSLSTSGMGVGWIRQPPGKGLEWLAHILWDDVKRYNPALKSRLTISKDSSKSQISLKLSSVTAADTAVYYCVQMAWDWFAYWGQGTTVTVSS
VL: DIQMTQSPSSLSASVGDRVTITCKASQNVDTNVAWYQQKPGQSPKALIYSASYRSSGVPSRFSGSGSGTDFTLTISSLQPEDFATYYCQQYHSYPTFGQGTRLEIKR
notes: also called S3E5 (hz); humanized antibody 53E5
A word on the IC50: it is the point on the concentration scale where inhibition reaches its midpoint. By EC50 is commonly meant the concentration giving half of the maximal effect. Read a low EC50 as an effect from little substance. By Kd is commonly meant a measure of binding affinity in units of concentration. Lower therefore signals tighter binding. Broadly, the koff is the first-order rate constant of dissociation. Read a high koff as a short-lived complex. One may read the kon as the second-order rate constant of association. A low value points to slow association. As to B1, the binding result with GDF1 (R&D, 6937-GD-010) is listed as “no binding (tested: 4 µg/ml)”; with GDF3 (R&D, 5754-G3-010), “no binding (tested: 4 µg/ml)”. This molecule returned an IC50 with GDF15-mFC protein of 0.253 µg/mL. The EC50 in test [1] was 0.0573 µg/mL; in test [3], 0.0372 µg/mL; in test [4] it was 0.0641 µg/mL. Binding in test [2] was put at a Kd of 293 pM. This molecule had a koff in test [2] of 0.000271 s⁻¹. The molecule also showed a kon in test [2] of 923000 M⁻¹ s⁻¹.
